These results are taken from patent publication US20180127493A1.

The target in assay [1] is membrane-bound TNFalpha on stably transfected CHO cells (B-220 cells). In words: FACS, beads with CHO-TNFα (B220) cells, Sample 2. On the technique in general: In flow cytometry, cells or beads pass a laser one at a time.
Assay [2] has the same target. In words: FACS, mixed beads with CHO-TNFα (B220) cells, Sample 4.
The target is the same in assay [3]. Kind of assay: FACS, anti-CD19 beads with TNFalpha-transfected CHO cells (FIG. 4, middle panel).

Substance “APC labeled unrelated antibody (anti-CD19), coated on beads” showed a % bound beads in assay [1] of 0.9%. Further, the % bound beads in assay [2] stood at 0.4%. In assay [3], the # Events (cells bound to anti-CD19-APC beads) came out at 6 events, the % Parent is 0.1% and the % Total was found to be 0.1%.
